Reference: US20170254813A1 (VENTANA MEDICAL SYSTEMS, published 2017)
Each block holds one binder with its values, some of them ahead of it.

Columns and labels:
PMS2 = molecular target: T1, PMS2 (UniProt P54278 1-862); experiment: in situ proximity assay on Hela cell xenograft sections
T1 construct: Endogenous protein of Hela cells in xenograft
T1 sequence (looked up): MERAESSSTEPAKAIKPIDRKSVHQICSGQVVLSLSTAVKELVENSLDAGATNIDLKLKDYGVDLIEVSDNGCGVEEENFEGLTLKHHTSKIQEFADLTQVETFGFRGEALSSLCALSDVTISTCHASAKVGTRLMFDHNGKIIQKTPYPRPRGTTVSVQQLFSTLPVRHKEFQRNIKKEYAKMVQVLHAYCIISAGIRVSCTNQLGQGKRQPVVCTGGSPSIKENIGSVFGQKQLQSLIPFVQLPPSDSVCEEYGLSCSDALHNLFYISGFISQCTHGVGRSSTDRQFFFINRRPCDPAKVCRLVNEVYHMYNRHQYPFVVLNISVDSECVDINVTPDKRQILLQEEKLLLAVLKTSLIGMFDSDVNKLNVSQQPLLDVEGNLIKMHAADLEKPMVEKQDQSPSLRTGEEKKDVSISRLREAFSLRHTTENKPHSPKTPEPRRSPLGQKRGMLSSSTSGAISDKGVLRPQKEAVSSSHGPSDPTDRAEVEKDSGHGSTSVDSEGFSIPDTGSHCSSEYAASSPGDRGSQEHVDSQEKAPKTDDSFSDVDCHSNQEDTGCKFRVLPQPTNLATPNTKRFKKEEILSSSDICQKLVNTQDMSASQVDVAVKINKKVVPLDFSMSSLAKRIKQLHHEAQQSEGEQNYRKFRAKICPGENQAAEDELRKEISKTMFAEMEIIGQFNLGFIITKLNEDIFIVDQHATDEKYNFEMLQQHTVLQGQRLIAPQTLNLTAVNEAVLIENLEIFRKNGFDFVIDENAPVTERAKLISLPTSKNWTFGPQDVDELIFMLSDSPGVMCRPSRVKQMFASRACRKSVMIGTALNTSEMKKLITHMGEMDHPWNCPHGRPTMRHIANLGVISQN

[1] = molecular target: T2, CD21 (complement receptor type 2) (UniProt P20023 21-1033, limits assumed); experiment: in situ proximity assay on FFPE normal tonsil sections
T2 construct: Endogenous protein in tissue section
T2 sequence (looked up): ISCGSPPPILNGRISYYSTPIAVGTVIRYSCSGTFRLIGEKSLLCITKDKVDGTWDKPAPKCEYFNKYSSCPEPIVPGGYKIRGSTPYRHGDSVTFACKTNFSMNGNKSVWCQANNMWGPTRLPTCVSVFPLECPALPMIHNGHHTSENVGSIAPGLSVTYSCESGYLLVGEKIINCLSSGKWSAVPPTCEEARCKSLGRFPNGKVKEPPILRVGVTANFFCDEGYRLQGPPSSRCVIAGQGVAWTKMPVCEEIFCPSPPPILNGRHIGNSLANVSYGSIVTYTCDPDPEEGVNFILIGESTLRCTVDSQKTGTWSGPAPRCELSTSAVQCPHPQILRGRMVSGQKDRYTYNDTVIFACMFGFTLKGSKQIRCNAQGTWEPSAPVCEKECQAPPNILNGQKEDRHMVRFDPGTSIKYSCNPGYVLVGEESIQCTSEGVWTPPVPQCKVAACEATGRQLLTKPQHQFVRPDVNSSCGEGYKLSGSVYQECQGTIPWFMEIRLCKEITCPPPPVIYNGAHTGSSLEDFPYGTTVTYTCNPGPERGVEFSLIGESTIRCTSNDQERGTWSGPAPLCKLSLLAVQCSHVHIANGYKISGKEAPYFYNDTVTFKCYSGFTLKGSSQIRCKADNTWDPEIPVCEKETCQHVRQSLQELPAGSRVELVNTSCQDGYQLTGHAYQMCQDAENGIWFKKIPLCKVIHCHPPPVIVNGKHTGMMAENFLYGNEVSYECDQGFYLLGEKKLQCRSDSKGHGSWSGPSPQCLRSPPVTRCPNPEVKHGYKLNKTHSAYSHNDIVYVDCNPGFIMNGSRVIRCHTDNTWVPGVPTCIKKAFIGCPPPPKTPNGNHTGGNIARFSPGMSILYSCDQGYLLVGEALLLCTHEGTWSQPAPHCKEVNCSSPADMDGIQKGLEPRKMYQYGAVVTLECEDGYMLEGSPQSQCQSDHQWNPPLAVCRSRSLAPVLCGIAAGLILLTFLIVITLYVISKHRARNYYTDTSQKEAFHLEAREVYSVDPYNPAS
Protocol: (§1) IHC staining was performed on a VENTANA BenchMark XT automated slide-processing system (Ventana). For all IHC staining, FFPE sections were first deparaffinization with EZ Prep solution (Ventana) and washed with reaction buffer. Antigen retrieval was carried out in Cell Conditioning 1 (Ventana) (100° C.; 92 minutes) and again washed with 1× reaction buffer (Ventana). […] After thorough wash with reaction buffer, secondary antibody conjugates of GAR-PEG₈-SS-HA-N₃ and GAM-PEG₄-CCH (100 μL of 10 μg/mL each) were added to slides and incubated at 37° C. for 32 minutes. The slides were washed in reaction buffer and water before a drop of 100 μL of HEPES buffer (0.15 M, pH 7.4) was added to the slides. To initiate the azide-acetylene click reaction, 100 μL of Cu(I) catalyst solution was added onto the slide. One working example of the Cu(I) solution contained 0.6 mM CuSO₄, 3 mM THPTA, 10 mM HEPES (pH=7.4), 40% DMSO (v/v) and 4 mM of sodium ascorbate (freshly made and added to CuSO₄ immediately before adding to slide). The click reaction was allowed to proceed for 32 minutes and the slides were washed thoroughly in reaction buffer. […] For chromogenic based detection using diaminobenzidine (DAB), ready-to-use solutions of DAB, H₂O₂ and Copper from an [sequence] […]

β-catenin = molecular target: T3, β-catenin (UniProt P35222 2-781); experiment: in situ proximity assay (chemical ligation and hapten transfer) on FFPE tonsil and skin sections
T3 construct: Endogenous protein in tissue section; also called beta-catenin
T3 sequence (looked up): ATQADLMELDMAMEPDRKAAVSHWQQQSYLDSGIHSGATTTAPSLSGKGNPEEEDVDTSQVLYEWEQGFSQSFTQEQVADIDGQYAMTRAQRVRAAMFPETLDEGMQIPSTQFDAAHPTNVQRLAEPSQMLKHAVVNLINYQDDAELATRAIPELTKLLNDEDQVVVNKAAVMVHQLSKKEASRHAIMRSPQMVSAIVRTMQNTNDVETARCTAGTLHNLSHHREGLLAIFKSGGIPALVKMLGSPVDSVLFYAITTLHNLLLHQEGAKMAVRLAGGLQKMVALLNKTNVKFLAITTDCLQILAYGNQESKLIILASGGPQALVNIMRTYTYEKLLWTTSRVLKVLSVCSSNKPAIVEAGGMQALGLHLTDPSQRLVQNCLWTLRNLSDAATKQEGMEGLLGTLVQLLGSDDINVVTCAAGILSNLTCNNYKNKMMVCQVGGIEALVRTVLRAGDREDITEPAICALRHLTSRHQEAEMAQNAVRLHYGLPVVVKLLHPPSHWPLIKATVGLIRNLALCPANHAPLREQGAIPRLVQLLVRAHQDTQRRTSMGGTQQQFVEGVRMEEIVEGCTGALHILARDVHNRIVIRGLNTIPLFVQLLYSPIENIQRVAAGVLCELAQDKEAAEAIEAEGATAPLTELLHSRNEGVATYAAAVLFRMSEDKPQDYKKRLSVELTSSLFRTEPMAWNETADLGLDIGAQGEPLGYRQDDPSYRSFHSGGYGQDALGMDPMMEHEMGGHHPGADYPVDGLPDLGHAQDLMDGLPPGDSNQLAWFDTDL
Protocol: as §1

- binding result (PMS2): binds
B1: MLH1 (other, UniProt P40692 2-756, looked up)
chain: SFVAGVIRRLDETVVNRIAAGEVIQRPANAIKEMIENCLDAKSTSIQVIVKEGGLKLIQIQDNGTGIRKEDLDIVCERFTTSKLQSFEDLASISTYGFRGEALASISHVAHVTITTKTADGKCAYRASYSDGKLKAPPKPCAGNQGTQITVEDLFYNIATRRKALKNPSEEYGKILEVVGRYSVHNAGISFSVKKQGETVADVRTLPNASTVDNIRSIFGNAVSRELIEIGCEDKTLAFKMNGYISNANYSVKKCIFLLFINHRLVESTSLRKAIETVYAAYLPKNTHPFLYLSLEISPQNVDVNVHPTKHEVHFLHEESILERVQQHIESKLLGSNSSRMYFTQTLLPGLAGPSGEMVKSTTSLTSSSTSGSSDKVYAHQMVRTDSREQKLDAFLQPLSKPLSSQPQAIVTEDKTDISSGRARQQDEEMLELPAPAEVAAKNQSLEGDTTKGTSEMSEKRGPTSSNPRKRHREDSDVEMVEDDSRKEMTAACTPRRRIINLTSVLSLQEEINEQGHEVLREMLHNHSFVGCVNPQWALAQHQTKLYLLNTTKLSEELFYQILIYDFANFGVLRLSEPAPLFDLAMLALDSPESGWTEEDGPKEGLAEYIVEFLKKKAEMLADYFSLEIDEEGNLIGLPLLIDNYVPPLEGLPIFILRLATEVNWDEEKECFESLSKECAMFYSIRKQYISEESTLSGQQSEVPGSIPNSWKWTVEHIVYKALRSHILPPKHFTEDGNILQLANLPDLYKVFERC
notes: Endogenous protein of Hela cells in xenograft

B2: CD19 (receptor, UniProt P15391 20-556, looked up)
chain: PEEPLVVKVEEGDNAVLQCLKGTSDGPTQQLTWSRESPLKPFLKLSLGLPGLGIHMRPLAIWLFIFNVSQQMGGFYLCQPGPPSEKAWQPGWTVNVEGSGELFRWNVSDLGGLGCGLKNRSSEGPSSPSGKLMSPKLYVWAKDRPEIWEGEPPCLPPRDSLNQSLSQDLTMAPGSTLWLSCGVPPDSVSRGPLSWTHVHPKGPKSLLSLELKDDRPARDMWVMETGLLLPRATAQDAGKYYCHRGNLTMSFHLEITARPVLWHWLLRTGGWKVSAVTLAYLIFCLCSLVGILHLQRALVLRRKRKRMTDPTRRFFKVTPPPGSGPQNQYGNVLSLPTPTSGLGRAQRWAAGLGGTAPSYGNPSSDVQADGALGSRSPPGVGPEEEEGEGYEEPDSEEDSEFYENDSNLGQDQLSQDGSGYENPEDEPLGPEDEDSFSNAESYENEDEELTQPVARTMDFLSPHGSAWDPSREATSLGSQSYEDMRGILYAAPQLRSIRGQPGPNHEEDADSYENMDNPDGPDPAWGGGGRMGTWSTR
notes: Endogenous protein in tissue section
- binding result [1]: binds

- binding result (β-catenin): binds
B3: E-cadherin (other, UniProt P12830 155-882, looked up)
chain: DWVIPPISCPENEKGPFPKNLVQIKSNKDKEGKVFYSITGQGADTPPVGVFIIERETGWLKVTEPLDRERIATYTLFSHAVSSNGNAVEDPMEILITVTDQNDNKPEFTQEVFKGSVMEGALPGTSVMEVTATDADDDVNTYNAAIAYTILSQDPELPDKNMFTINRNTGVISVVTTGLDRESFPTYTLVVQAADLQGEGLSTTATAVITVTDTNDNPPIFNPTTYKGQVPENEANVVITTLKVTDADAPNTPAWEAVYTILNDDGGQFVVTTNPVNNDGILKTAKGLDFEAKQQYILHVAVTNVVPFEVSLTTSTATVTVDVLDVNEAPIFVPPEKRVEVSEDFGVGQEITSYTAQEPDTFMEQKITYRIWRDTANWLEINPDTGAISTRAELDREDFEHVKNSTYTALIIATDNGSPVATGTGTLLLILSDVNDNAPIPEPRTIFFCERNPKPQVINIIDADLPPNTSPFTAELTHGASANWTIQYNDPTQESIILKPKMALEVGDYKINLKLMDNQNKDQVTTLEVSVCDCEGAAGVCRKAQPVEAGLQIPAILGILGGILALLILILLLLLFLRRRAVVKEPLLPPEDDTRDNVYYYDEEGGGEEDQDFDLSQLHRGLDARPEVTRNDVAPTLMSVPRYLPRPANPDEIGNFIDENLKAADTDPTAPPYDSLLVFDYEGSGSEAASLSSLNSSESDKDQDYDYLNEWGNRFKKLADMYGGGEDD
notes: Endogenous protein in tissue section; also called E-cadherein
